Where a chain is given by its changes, count along the chain named.

One test has as its target T1, RapJ-R105A,Y161F (B. subtilis, UniProt O34327 1-373, R105A | Y161F).
T1 construct: RapJ, Bacillus subtilis, double mutant R105A,Y161F; same construct limits as wild-type RapJ; source: overexpressed and purified as for X-ray crystallography (E. coli; after the SourceQ step dialysed against buffer H); not shown: His, N-terminal, cleaved; SUMO, N-terminal, cleaved
T1 sequence (looked up): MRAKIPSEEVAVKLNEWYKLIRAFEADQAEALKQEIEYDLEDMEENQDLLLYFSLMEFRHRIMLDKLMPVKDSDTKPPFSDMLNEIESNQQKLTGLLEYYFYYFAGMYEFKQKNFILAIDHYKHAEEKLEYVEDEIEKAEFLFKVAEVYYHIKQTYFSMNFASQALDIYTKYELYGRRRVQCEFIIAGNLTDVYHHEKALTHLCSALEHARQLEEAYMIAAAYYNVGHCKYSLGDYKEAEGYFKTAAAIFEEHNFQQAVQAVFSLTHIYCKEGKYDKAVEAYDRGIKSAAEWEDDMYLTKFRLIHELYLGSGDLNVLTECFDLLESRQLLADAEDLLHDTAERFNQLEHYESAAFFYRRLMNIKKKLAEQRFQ
Description: SEC + other: MALDI-TOF and MALDI-TOF/TOF mass spectrometry; 8.5 mM PhrC mixed with 425 µM RapJ (wild type or R105A,Y161F), Superdex 200 16/70 in 20 mM Tris-HCl pH 8.0, 50 mM KCl, 5 mM MgCl2, 5 mM DTT; peak fractions analysed for PhrC (m/z 593.27); PhrC alone as control. Particulars: both partners purified.

A further test concerns the target T2, RapJ (B. subtilis strain 168, UniProt O34327 1-373).
T2 construct: RapJ, Bacillus subtilis strain 168, amplified from genomic DNA; no heterologous residues after removal of His-Sumo; Phases came from selenomethionyl RapJ crystals; In the functional rows the in vivo RapJ was expressed in B. subtilis VP068 from pDRJ1 (IS75 DNA); also called response regulator aspartate phosphatase J; wild-type RapJ; source: E. coli BL21(DE3), purified (His-60 Ni resin, SUMO …)
T2 sequence (looked up): T1 sequence (looked up) with A105R, F161Y
Described as above. The following applies: both partners purified.

B1: PhrC (peptide)
peptide: ERGMT
notes: mature PhrC pentapeptide (NH2-ERGMT-COOH), cut from the C-terminus of pro-PhrC, Bacillus subtilis; also called CSF; source: synthetic peptide, bought: LifeTein, 95% purity
As for B1, the binding result in the test with RapJ-R105A,Y161F and with RapJ was “binds” in each case.
